Bridges are numbered along the chain shown (N, C = ends). Where no end group is shown, it is not given here.
Columns and labels:
Assay in all cases: cell-based or functional assay
[1] = target: T1, mouse TRPM8 channel (mouse, UniProt Q8R4D5 1-1104)
[2] = target: T2, TRPV2
T2 sequence (Q9Y5S1 whole entry, species assumed, looked up): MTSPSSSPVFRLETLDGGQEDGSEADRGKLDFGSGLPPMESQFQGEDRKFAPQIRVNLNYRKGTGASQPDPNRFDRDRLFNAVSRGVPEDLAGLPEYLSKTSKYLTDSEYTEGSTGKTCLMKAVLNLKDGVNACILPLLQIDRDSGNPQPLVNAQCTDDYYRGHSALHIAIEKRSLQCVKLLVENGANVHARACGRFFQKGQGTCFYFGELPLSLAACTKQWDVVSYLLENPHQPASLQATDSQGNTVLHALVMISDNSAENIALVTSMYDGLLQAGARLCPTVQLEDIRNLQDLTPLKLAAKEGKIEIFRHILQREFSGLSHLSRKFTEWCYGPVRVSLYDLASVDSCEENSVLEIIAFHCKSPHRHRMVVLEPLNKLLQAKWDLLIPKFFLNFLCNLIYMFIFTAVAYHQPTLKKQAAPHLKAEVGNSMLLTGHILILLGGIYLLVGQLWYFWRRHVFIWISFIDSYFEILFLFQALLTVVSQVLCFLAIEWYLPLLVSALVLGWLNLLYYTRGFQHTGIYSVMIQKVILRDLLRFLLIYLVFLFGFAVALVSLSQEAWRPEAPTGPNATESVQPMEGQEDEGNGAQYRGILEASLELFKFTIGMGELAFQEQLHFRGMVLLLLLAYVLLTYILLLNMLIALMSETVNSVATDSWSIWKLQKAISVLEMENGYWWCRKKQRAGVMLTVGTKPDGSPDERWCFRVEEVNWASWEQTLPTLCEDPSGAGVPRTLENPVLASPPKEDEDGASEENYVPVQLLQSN

[3] = target: Nav1.5
[4] = target: TRPM4-K1045A
[5] = target: T2, TRPV2; remark: listed apart in the source
[6] = target: TRPM2
[7] = target: TRPV1
[8] = target: T1, mouse TRPM8 channel; remark: listed apart in the source
[9] = target: Nav1.7
[10] = target: TRPA1
Chain of TRPA1 (O75762 whole entry): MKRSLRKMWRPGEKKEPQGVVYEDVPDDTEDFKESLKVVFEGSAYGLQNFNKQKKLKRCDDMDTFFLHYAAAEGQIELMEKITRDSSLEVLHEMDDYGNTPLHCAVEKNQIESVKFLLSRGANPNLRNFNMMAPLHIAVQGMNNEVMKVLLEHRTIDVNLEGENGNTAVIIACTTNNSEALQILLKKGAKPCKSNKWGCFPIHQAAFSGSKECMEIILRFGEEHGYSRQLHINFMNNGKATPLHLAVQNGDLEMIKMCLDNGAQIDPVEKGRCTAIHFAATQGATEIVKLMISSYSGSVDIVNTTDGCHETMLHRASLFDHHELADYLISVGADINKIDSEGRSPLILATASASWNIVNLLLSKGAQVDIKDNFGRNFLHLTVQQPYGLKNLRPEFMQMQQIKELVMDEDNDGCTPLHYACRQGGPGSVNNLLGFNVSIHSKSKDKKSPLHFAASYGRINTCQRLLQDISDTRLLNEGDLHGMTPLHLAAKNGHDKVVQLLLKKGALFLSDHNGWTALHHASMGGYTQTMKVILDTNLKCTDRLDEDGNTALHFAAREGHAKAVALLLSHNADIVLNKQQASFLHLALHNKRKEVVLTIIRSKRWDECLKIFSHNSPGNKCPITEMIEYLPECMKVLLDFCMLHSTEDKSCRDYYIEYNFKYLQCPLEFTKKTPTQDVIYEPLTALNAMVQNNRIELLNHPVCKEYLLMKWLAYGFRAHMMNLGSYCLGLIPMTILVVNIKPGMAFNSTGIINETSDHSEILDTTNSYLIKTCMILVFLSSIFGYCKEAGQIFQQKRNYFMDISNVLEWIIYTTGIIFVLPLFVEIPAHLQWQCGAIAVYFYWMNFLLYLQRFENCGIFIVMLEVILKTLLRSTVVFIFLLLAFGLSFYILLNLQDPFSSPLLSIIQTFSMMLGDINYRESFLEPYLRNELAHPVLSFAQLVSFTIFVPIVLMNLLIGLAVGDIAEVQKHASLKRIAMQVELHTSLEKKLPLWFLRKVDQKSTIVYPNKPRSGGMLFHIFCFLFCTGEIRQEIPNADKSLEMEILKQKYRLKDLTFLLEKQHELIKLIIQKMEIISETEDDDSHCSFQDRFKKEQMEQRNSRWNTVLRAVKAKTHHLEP

[11] = target: TRPV3
Chain of TRPV3 (Q8NET8 whole entry): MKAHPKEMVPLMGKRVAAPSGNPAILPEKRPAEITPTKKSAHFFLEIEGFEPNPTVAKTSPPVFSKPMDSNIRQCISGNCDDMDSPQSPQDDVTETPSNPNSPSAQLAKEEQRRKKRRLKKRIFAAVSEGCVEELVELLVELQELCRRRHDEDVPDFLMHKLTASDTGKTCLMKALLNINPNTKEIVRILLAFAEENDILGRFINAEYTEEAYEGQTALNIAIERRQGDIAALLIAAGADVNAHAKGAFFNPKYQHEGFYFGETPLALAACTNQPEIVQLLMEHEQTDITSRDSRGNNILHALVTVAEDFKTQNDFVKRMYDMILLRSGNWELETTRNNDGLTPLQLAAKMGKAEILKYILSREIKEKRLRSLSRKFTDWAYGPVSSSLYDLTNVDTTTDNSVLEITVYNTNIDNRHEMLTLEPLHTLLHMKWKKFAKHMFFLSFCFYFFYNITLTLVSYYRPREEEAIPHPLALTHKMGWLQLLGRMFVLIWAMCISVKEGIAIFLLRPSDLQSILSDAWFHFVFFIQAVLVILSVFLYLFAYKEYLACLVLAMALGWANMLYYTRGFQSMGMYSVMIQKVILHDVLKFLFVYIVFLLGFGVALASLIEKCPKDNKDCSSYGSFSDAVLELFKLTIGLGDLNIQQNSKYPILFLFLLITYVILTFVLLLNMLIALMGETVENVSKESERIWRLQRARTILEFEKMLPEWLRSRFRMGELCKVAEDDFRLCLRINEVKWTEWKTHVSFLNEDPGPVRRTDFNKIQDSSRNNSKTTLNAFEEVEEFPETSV

T1 sequence (Q8R4D5 whole entry): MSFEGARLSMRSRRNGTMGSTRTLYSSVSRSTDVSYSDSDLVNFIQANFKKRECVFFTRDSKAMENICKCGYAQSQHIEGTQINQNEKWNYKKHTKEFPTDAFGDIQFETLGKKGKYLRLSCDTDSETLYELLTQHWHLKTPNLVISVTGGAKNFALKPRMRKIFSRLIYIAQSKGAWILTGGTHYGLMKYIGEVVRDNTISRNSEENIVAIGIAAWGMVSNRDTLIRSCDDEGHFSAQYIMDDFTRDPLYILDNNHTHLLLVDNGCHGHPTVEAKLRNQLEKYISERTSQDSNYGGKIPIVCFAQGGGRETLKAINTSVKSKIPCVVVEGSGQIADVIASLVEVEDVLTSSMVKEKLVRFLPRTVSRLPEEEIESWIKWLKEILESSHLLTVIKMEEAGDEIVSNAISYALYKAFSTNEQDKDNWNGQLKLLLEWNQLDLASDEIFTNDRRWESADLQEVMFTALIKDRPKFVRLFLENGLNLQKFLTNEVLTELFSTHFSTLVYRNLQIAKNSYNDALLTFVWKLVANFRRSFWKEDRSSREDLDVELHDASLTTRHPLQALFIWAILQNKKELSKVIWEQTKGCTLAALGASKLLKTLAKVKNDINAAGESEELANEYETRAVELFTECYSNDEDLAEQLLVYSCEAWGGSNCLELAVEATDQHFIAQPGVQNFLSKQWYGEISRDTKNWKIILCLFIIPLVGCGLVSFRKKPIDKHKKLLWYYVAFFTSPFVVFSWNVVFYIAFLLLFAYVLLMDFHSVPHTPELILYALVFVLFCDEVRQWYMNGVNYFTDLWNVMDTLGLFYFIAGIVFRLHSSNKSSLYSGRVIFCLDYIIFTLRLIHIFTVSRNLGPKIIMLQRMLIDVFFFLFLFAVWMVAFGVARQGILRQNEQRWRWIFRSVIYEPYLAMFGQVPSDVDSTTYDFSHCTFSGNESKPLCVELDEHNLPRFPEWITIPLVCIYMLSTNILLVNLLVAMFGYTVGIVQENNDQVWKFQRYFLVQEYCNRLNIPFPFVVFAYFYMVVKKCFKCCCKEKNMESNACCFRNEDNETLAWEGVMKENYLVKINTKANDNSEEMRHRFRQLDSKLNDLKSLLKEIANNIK

Binder	half-inhibitory concentration (IC50), electrophysiology [1] [µM]	half-inhibitory concentration (IC50), electrophysiology [2] [µM]	IC50, inhibition of sodium channel current, electrophysiology [3] [µM]	IC50, inhibition of ligand-activated channel current, electrophysiology [4] [µM]	IC50, inhibition of ligand-activated channel current, electrophysiology [5] [µM]	IC50, inhibition of ligand-activated channel current, electrophysiology [6] [µM]	IC50, inhibition of ligand-activated channel current, electrophysiology [7] [µM]	IC50, inhibition of menthol-activated TRPM8 current, whole-cell electrophysiology [8] [nM]	IC50, inhibition of sodium channel current, electrophysiology [9] [µM]	IC50, inhibition of channel current, electrophysiology [10] [µM]	IC50, inhibition of ligand-activated channel current, electrophysiology [11] [µM]
CRNSRAAHDSQKC (disulfide 1-13) [polypeptide DeC-1.1]	133										
CRRDRARHYRQRC (disulfide 1-13) [polypeptide DeC-1.2]		~10	> 100	> 10	> 5	> 100	> 100	4.5	> 100	> 100	> 100

Source: patent US20240417428A1 (ZHEJIANG UNIVERSITY, published 2024)
